# Columns and labels:
# Type in all cases: cell-based, human
# [1] = test system: HL-60 cells adhered to HUVEC cells; assay: Binding between inflammatory cells HL-60 and HUVEC induced by TNF-a; details: 1 ng/ml TNF-a; 0.2 ug/ml Ang1 or 0.1 ug/ml Ang2 + 0.5 ug/ml 10D6
# Procedure: Meanwhile, if the expression of inflammatory adhesion substances (ICAM-1, E-selectin, etc.) of vascular endothelial cells is increased, binding between the inflammatory cells and the vascular endothelial cells are accelerated and inflammatory response is thus induced. To confirm this, an experiment for measuring binding between inflammatory cells HL-60 (ATCC) and HUVEC was conducted.
# HUVEC cells (4×10^5) were cultured in a 24-mutiwell plate and treated with 0.1 ug/ml of Ang2 alone or 0.1 ug/ml of Ang2 together with 0.5 ug/ml of antibody 10D6, and a group in which 0.2 ug/ml of Ang1, and 0.1 ug/ml of Ang2 (R&D systems) and 0.5 ug/ml of Regeneron Co. antibody (RG antibody) were co-treated was included as a control group. As above, the HUVEC cells were treated with Angiopoietin and antibody and after 30-min. pre-incubation, they were treated with 1 ng/ml of TNF-a (eBioscience) to induce inflammatory response and incubated for 2 hours and 30 min.
# After the HUVEC cells were washed with complete media (Lonza), HL-60 cells dyed with Calcein-AM (BD bioscience) solution were added at the amount of 2.5×10^5 cells to each well and incubated for 1 hour. […] The obtained lysate was transported to a 96-well plate, and fluorescence strengths derived from the HL-60 cells were measured at 485/535 nm (Ex/Em) setting using an Envision 2104 multilabel Reader (Perkin Elmer).
# HUVEC monolayer = assay: In vitro vascular permeability assay (FITC-dextran); details: 200 ng/ml Ang1 alone or 200 ng/ml Ang2 + 1 ug/ml 10D6
# Procedure: To see the cell permeability suppression effects of antibody 10D6, in vitro vascular permeability assay kit (Millipore) was employed. HUVEC (ATCC) cells (5×10^4) were added to a collagen-coated transwell and cultured for 2 days to prepare a confluent monolayer. It was treated with 200 ng/ml of Ang2 or 200 ng/ml of Ang1 (R&D systems) alone, or 200 ng/ml of Ang2 and 1 ug/ml of antibody 10D6, pre-incubated for 30 min. and then, treated with 100 ng/ml of LPS (Lipopolysaccharide; Sigma) or 100 ng/ml TNF-a (R&D systems) to induce the permeability of HUVEC monolayer. LPS or TNF-a weakens binding between HUVEC cells to form a gap therebetween, thereby increasing the migration of materials in the HUVEC monolayer. After 6-hour incubation for the LPS treatment group and 22-hour incubation for the TNF-a group, the upper chamber was treated with FITC-dextran (Millipore) and incubated for 18 min. The fluorescence of FITC-dextran migrated to the lower chamber was measured at 485/535 nm (Ex/Em) setting using an Envision 2104 multilabel Reader (Perkinelmer).
# E-selectin = assay: LPS-induced mRNA expression of E-selectin in HUVEC (qPCR); details: 100 ng/ml LPS 5 hours, 0.2 ug/ml Ang1 or 0.1 ug/ml Ang2 + 0.5 ug/ml antibody
# Procedure: (§1) To see anti-inflammatory effects by antibody 10D6, HUVEC (ATCC) cells (4×10^5) were treated with Ang2 alone or Ang2 together with antibody 10D6, and a group in which Ang1 and Ang2 (R&D systems) and Regeneron Co. antibody (RG antibody) were co-treated was included as a control group. HUVEC cells were treated with 0.2 ug/ml of Ang1, 0.1 ug/ml of Ang2, or 0.1 ug/ml of Ang2 and 0.5 ug/ml of antibody, respectively and after 30-min. pre-incubation, they were treated with 100 ng/ml of LPS (Sigma) to induce inflammatory response and incubated for 5 hours.
# (§2) The degree of the inflammatory response was identified by measuring the mRNA expression degree of an inflammatory adhesion substance (ICAM-1, E-selectin). The cells were washed using PBS, RNA was extracted using RNeasy Mini kit (Qiagen), and among them, 2 ug of RNA was synthesized into cDNA using Transcriptor First Strand cDNA synthesis kit (Roche). qPCR reaction was performed using RT2 SYBR™ Green Mastermix (Qiagen) and LightCycler™ 480 Real-Time PCR System (Roche). As an internal control for calibrating the amount of RNA in a sample, HPRT1 was used, and qPCR complied with the following procedures with regard to all the primers.
# (§3) Step 1: 95° C., 10 min; Step 2 (45 cycles): Step 2-1: 95° C., 15 sec; Step 2-2: 60° C., 1 min; Step 3: 65° C., 15 sec; Step 4: 95° C., continuous (every 20° C.); Step 6: 40° C., 10 sec.
# ICAM-1 = assay: LPS-induced mRNA expression of ICAM-1 in HUVEC (qPCR); details: 100 ng/ml LPS 5 hours, 0.2 ug/ml Ang1 or 0.1 ug/ml Ang2 + 0.5 ug/ml antibody
# Procedure: as §1, §2, §3
# Akt, eNOS and 42/44 = assay: Phosphorylation of Tie2 downstream signaling proteins in HUVEC (immunoblot); details: 60 nM 10D6 + 40 nM Ang2, or Ang1 4 nM alone, 30 min
# Procedure: To see whether antibody 10D6 induces the activation of the downstream signaling of a Tie2 receptor as well as the activation of the Tie2 receptor itself, the phosphorylation degrees of proteins participating in the downstream signaling when Ang2 alone or Ang2 and antibody 10D6 was treated were tested using immune blotting.
# Specifically, HUVEC (ATCC) cells (1×10^6) were cultured in a 6-well culture dish using EGM-2 (Lonza) media at 37° C. and when they reached 80˜90% confluency, the media were replaced with serum-free media (Lonza) and cultured at 37° C. for 6 to 16 hours. The dish was washed once with PBS, and the cultured cells were treated with a mixture prepared by mixing 60 nM of the Ang2 antibody (10D6) with 40 nM of Ang2 protein (R&D systems) and letting them stand for 20 min. and further cultured for 30 min. For comparison, groups in which Ang1 (R&D systems) 4 nM, Ang2 (R&D systems) 40 nM, and Ang2 (R&D systems) 40 nM+anti-Ang2 antibody (Regeneron) 60 nM were treated respectively were prepared.
# The cells were washed using PBS, treated with a lysis buffer (Roche), collected to a tube to be dissolved at 4° C. for 30 min. and then, centrifuged at 13,000 rpm for 15 min. to measure a supernatant. A sample buffer (Invitrogen) mixed with a reducing agent was added to 25 ug of a cell lysate, which was boiled at 95° C. for 5 min., and then, applied to NuPAGE Novex 4-12% Bis-Tris gel (Invitrogen) and transferred onto Nitrocellulose membrane (Invitrogen).
# To see the presence of the phosphorylation of Akt, eNOS and 42/44 involved in the downstream signaling, the blots were blocked with PBST mixed with 3% (v/v) skim milk (Sigma) for 30 min. and then treated with an anti pAkt antibody, anti p-eNOS antibody, and anti p-42/44 antibody (all of them; cell signaling). The blots were reacted in a stripping buffer (Thermo) for 15 min. and then blocked again to identify Akt, eNOS, and 42/44 using an anti Akt antibody, anti eNOS antibody, and anti 42/44 antibody (all of them; cell signaling).
molecule,measurement,setting,value
"Ang1: Angiopoietin-1 protein (R&D systems), ligand which activates the Tie2 receptor (protein, UniProt Q15389 16-498, looked up) Angiopoietin-1: HIGCSNQRRSPENSGRRYNRIQHGQCAYTFILPEHDGNCRESTTDQYNTNALQRDAPHVEPDFSSQKLQHLEHVMENYTQWLQKLENYIVENMKSEMAQIQQNAVQNHTATMLEIGTSLLSQTAEQTRKLTDVETQVLNQTSRLEIQLLENSLSTYKLEKQLLQQTNEILKIHEKNSLLEHKILEMEGKHKEELDTLKEEKENLQGLVTRQTYIIQELEKQLNRATTNNSVLQKQQLELMDTVHNLVNLCTKEGVLLKGGKREEEKPFRDCADVYQAGFNKSGIYTIYINNMPEPKKVFCNMDVNGGGWTVIQHREDGSLDFQRGWKEYKMGFGNPSGEYWLGNEFIFAITSQRQYMLRIELMDWEGNRAYSQYDRFHIGNEKQNYRLYLKGHTGTAGKQSSLILHGADFSTKDADNDNCMCKCALMLTGGWWFDACGPSNLNGMFYTAGQNHGKLNGIKWHYFKGPSYSLRSTTMMIRPLDF",binding between HUVEC cells and HL-60 cells induced by TNF-a,[1],remarkably suppressed
same,vascular permeability increased by LPS,"HUVEC monolayer; 100 ng/ml LPS, 6 hour",decreased to the control level
same,vascular permeability increased by TNF-a,"HUVEC monolayer; 100 ng/ml TNF-a, 22 hour",decreased to the control level
same,expression of E-selectin induced by LPS,E-selectin,remarkably suppressed
same,expression of ICAM-1 induced by LPS,ICAM-1,remarkably suppressed
same,"downstream signaling (phosphorylation of Akt, eNOS, 42/44) compared to Ang2 sole-treatment and Ang2 + RG antibody","Akt, eNOS and 42/44",strongly induced

# — patent US9505841B2, “Use of an anti-Ang2 antibody” (Samsung Electronics Co., Ltd., priority 2013, dated 2016)
